In the Immune Epitope Database (IEDB):

Legend:
Details in all cases: source organism: Vaccinia virus WR
HLA-A*02:06 [1] = assay: IEDB peptide-MHC binding, purified MHC/competitive/radioactivity; ≥ and ≤ were set here for values at or beyond the usual limits of such assays
HLA-A*02:03 = assay: as above
HLA-A*02:01 [2] = assay: as above
HLA-A*68:02 [3] = assay: IEDB peptide-MHC binding, cellular MHC/competitive/fluorescence; ≥ and ≤ were set here for values at or beyond the usual limits of such assays
HLA-A*02:02 = assay: as above
HLA-A*68:02 [4] = assay: IEDB peptide-MHC binding, purified MHC/competitive/radioactivity; ≥ and ≤ were set here for values at or beyond the usual limits of such assays
HLA-A*02:01 [5] = assay: IEDB peptide-MHC binding, cellular MHC/competitive/fluorescence; ≥ and ≤ were set here for values at or beyond the usual limits of such assays
HLA-A*02:06 [6] = assay: as above

| Sequence | IC50 (HLA-A*02:06 [1]) | IC50 (HLA-A*02:03) | IC50 (HLA-A*02:01 [2]) | IC50 (HLA-A*68:02 [3]) | IC50 (HLA-A*02:02) | IC50 (HLA-A*68:02 [4]) | IC50 (HLA-A*02:01 [5]) | IC50 (HLA-A*02:06 [6]) |
| --- | --- | --- | --- | --- | --- | --- | --- | --- |
| LVQYRILPMI | 0.712 µM | 1.2 µM | 2.54 µM | 12.5 µM | 12.5 µM |  |  |  |
| STVDVRNIV | 1.63 µM | 3.48 µM |  |  | 6.33 µM | 0.018 µM | 8.07 µM |  |
| FAFIDFSKST | 1.41 µM | 2.41 µM |  | 5.06 µM | 11.8 µM |  | 7.72 µM |  |
| YASLTTIGTI | 0.084 µM | 0.398 µM |  |  | 6.29 µM | 0.133 µM | 8.42 µM |  |
| CTIVDSMII | 4.58 µM | 1.79 µM |  |  | 13.9 µM | 3.08 µM | 5.16 µM |  |
| CALVSDCAST | 2.6 µM | 0.146 µM | 0.149 µM | 52.9 µM | 6.41 µM |  |  |  |
| NVTYNIKPV | 0.855 µM | 0.153 µM |  |  | 22.8 µM | 0.376 µM | 6.36 µM |  |
| VTDKTAYIGT | 0.227 µM | 4 µM |  | 6.47 µM | 21.8 µM |  | 6.62 µM |  |
| DLKHATDYIA | 1.05 µM | 2.96 µM |  | 9.31 µM | 8.76 µM |  | 16.3 µM |  |
| STIANSNII | 1.24 µM | 1.47 µM |  |  | 6.12 µM | 0.035 µM | 12.7 µM |  |
| NINIEVKLFI | 2.32 µM | 2.05 µM | 1.17 µM | 7.44 µM | 12.5 µM |  |  |  |
| GVPHSVFIA | 0.101 µM | 3.63 µM |  |  | 5.37 µM | 2.99 µM | 5.35 µM |  |
| LTQVKELGIA | 0.018 µM | 0.15 µM |  | 13.4 µM | 11.8 µM |  | 39.2 µM |  |
| AVTLNRIKI |  | 3.34 µM | 1.15 µM |  | 10.8 µM | 4.95 µM |  | 7.61 µM |
| TISWMMKLGI | 2.78 µM | 0.972 µM | 4.57 µM |  | 7.84 µM | 1.48 µM |  |  |
| STFNMWREI | 0.095 µM | 0.713 µM |  |  | 5.82 µM | 0.02 µM | 5.67 µM |  |
| KINNNRIVAM | 3.18 µM | 1.3 µM |  | 22.7 µM | 9.12 µM |  | 23.7 µM |  |
